Measured values reported in US5811393A (The Childrens Medical Center Corp., priority 1993, dated 1998).

Key:
[1] = system: EGF receptors on A-431 cells; assay: Competitive [125I]EGF binding to A-431 cells; design: species or system human
Method: (§1) Competitive binding assays were used to measure this interaction and were performed as follows.

EGF receptors on BASMC = assay: Competitive [125I]EGF binding to bovine aortic smooth muscle cells
Method: as §1

[2] = Heparin affinity chromatography (NaCl elution from immobilized heparin); format: binding; conditions: partially purified sample, 0.2-2M NaCl gradient, pH 7.5
Source text: Heparin affinity chromatography has been used extensively for purifying and characterizing a variety of these growth factors. Acidic FGF (aFGF) and basic FGF (bFGF) bind to immobilized heparin columns and are eluted with 1.0M to 1.2M NaCl and 1.5M to 1.8M NaCl, respectively (Folkman and Klagsbrun, 235 Science 442, 1987; Lobb et al., 261 J. Biol. Chem. 1924, 1986). Several growth factors which are structurally homologous to aFGF and bFGF also have an affinity for heparin (see, for example, Rubin et al., 86 Proc. Natl. Acad. Sci. USA 802, 1989). PDGF binds to immobilized heparin, but with relatively low affinity, being eluted with only 0.5M NaCl. […] Lobb et al. (261 J. Biol. Chem. 1924, 1986) report the partial purification by heparin affinity of two classes of growth factors mitogenic for endothelial cells. Gospodarowicz et al. (81 Proc. Natl. Acad. Sci. USA 6963, 1984) report the use of heparin affinity in the purification of bovine brain and pituitary fibroblast growth factors. Shing et al. (29 J. Cell Biochem. 275, 1985) report a chondrosarcoma-derived growth factor purified by heparin-Sepharose affinity chromatography and Bio Rex 70 cation exchange chromatography. […]
HB-EHM was purified as follows. Growth factor activity was monitored during the purification procedures using BALB/c mouse 3T3 cells as target cells and measuring [^3 H]-thymidine incorporation into DNA. […]

B1: HB-EHM: novel heparin binding growth factor with EGF-homologous segment, purified from U-937 lymphoma cell conditioned medium, about 22 kD (protein)
chain: RVTLSSKPQALATPNKEEHGKRKKKGKGLGKKRDPCLRKYKDFCIHGECKYVKELRAPSCICHPGYHGERCHGLS
modifications: O-linked glycosylation (suggested by O-glycanase treatment; the threonines predicted at positions 2 and 12 of the form first sequenced were not detected in protein sequencing)
With B1 the “inhibition of the binding of [125I]EGF to A-431 cells” value ([1]; maximal competition, confluent A-431 cells) was ~100%, the “binding to EGF receptors on A-431 cells” value ([1]; purified HB-EHM) was “found to bind” and the “50% inhibition of [125I]EGF binding” value (EGF receptors on BASMC; BASMC, 6-well plates) was 63 pg/mL. For the same molecule, the “binding to EGF receptors on SMC” value (EGF receptors on BASMC; purified HB-EHM) was “found to bind” and the “NaCl concentration eluting from the TSK-heparin column” value [2] was 1 to 1.2 M.
